From article PMC9912261 come the findings set out here.

Series [1] concerns Lys1 (position 1, -----K-----). Description: NMR. The note with it: ambient (SI general details say 1H NMR spectra were recorded at ambient temperature); none stated; pH adjusted with HCl/NaOH; free small peptide derivative in solution.
Series [2] concerns Lys1 (position 1, -----KG----). As to the kind of experiment: NMR. The following applies: ambient (SI general details say 1H NMR spectra were recorded at ambient temperature); none stated; pH adjusted with HCl/NaOH; free small peptide derivative in solution.

For “Ac-Lys-SH (N-acetyl-lysine thioacid) (synthetic)”, in series [1], the pKa entry is “approximately 10.8”. As for “Ac-Lys-Gly-SH (N-acetyl-lysyl-glycine thioacid) (synthetic)”, in series [2], the pKa result is on record as “approximately 10.8”.

“Ac-Lys-OH (N-alpha-acetyl-lysine) (synthetic)”: the pKa result in series [1] is “approximately 10.8”. With “Ac-Lys-CN (N-acetyl-lysine nitrile) (synthetic)”, the pKa result in series [1] is given as “approximately 10.4”.
